Laboratory results: patent US6987089 (dated 2006)
One block for each binder: values may come before it.

Assays:
[1] = target: T1, wild type CAD (CAD-WT) (1-345), caspase-activated deoxyribonuclease, 35S-labelled (mouse, UniProt O54788 1-344, 35S label); experiment: GST pull-down on glutathione-agarose beads, labelled CAD, SDS-PAGE
T1 construct: range 1-345; also called 35S-labeled CAD
T1 sequence (looked up): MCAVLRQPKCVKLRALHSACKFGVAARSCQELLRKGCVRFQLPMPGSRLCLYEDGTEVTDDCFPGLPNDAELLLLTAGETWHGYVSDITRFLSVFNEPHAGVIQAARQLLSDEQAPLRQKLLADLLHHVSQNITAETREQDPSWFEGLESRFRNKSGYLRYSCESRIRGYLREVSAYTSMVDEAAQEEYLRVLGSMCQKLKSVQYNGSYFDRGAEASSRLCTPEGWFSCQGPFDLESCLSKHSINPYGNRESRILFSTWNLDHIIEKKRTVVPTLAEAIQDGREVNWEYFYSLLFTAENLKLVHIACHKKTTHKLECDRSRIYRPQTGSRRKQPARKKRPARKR
Experimental: In detail, wild type CIA (CIA-WT) and its deletion mutants, CIA-ΔN, CIA-ΔC and CIA-CEN, all of them prepared in Example 4, were immobilized onto glutathione-agarose beads and then applied to in vitro translated [^35S] methionine-labeled CAD. Meanwhile, wild type CAD (CAD-WT) (1–345) and its deletion mutants, CAD-ΔN deficient in a […] region (Δ1–83), CAD-NT containing N-terminal half only (Δ162–345), CAD-ΔC deficient in a C-terminal region (Δ290–345), were prepared by PCR and cloned to pLexA (Clonetech). After being isolated and purified from E. coli transformants harboring the expression vectors, the recombinant proteins CAD-WT, CAD-ΔN, CAD-NT and CAD-ΔC, were labeled with ^35S radioactive isotope, and then applied to the glutathione-agarose beads onto which GST-CIA was immobilized. The proteins bounded to the glutathione-agarose beads were eluted, and separated on a gel by SDS-PAGE.

[2] = target: T2, ASK1 wild-type, full length (apoptosis signal-regulating kinase 1), in vitro translated and … (UniProt Q99683 1-1374, 35S-methionine label); experiment: GST pull-down on glutathione-agarose beads, 35S-labelled ASK1, SDS-PAGE
T2 construct: range 1-1375; also called full length ASK1; 35S-labeled ASK1
T2 sequence (looked up): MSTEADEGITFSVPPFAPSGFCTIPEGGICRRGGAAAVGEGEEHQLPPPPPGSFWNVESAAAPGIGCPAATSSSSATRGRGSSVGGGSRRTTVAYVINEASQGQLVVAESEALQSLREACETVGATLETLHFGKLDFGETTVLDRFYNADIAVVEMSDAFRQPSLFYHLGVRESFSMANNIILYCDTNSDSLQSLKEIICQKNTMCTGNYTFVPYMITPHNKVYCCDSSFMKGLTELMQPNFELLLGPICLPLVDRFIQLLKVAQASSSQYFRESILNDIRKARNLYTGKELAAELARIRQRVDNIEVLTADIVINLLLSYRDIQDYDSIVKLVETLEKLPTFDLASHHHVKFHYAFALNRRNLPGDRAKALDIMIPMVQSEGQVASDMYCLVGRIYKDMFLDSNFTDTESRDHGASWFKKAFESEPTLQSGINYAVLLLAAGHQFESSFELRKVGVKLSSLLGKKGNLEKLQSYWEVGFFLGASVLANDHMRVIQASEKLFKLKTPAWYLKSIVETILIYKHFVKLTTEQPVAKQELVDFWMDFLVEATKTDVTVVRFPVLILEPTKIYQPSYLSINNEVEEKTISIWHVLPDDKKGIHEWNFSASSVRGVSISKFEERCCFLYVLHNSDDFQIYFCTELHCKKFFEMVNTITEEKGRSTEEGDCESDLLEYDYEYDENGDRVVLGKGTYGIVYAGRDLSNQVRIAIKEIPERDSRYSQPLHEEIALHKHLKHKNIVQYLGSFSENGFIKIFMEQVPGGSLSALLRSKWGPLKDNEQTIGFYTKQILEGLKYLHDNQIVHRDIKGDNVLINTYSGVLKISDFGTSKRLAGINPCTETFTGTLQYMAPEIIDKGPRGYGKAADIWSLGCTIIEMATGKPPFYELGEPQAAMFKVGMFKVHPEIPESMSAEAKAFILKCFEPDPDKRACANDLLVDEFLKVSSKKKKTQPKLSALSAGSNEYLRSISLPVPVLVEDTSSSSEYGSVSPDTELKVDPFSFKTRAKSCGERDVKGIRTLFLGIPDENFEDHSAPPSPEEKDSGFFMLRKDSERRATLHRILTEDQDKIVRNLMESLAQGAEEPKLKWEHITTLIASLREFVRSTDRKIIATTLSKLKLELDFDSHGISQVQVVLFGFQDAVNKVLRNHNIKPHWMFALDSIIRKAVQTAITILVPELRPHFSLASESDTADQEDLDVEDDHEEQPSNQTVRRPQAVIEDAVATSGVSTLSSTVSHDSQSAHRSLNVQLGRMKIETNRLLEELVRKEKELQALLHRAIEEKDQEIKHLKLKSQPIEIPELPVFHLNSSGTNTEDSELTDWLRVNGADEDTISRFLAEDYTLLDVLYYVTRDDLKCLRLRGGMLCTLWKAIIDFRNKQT
Experimental: After being immobilized onto glutathione-agarose beads, GST-CIA-WT and its deletion recombinant peptides were reacted with the […] [^35S] methionine-labeled ASK1 or its mutant peptides at 4° C. for 3 hours in a buffer (50 mM Tris, pH 7.5, 150 mM NaCl, 2 mM EDTA, 1 mM dithiothreitol, 0.1% NP-40 and 5 mg/ml BSA). After completion of the reaction, the glutathione-agarose beads were washed three times with a buffer (50 mM HEPES, pH 7.5, 150 mM NaCl, 1 mM EDTA, 1 mM dithiothreitol, 0.1% Tween 20). Next, ^35S-labeled peptides were eluted from the glutathione-agarose beads and analyzed by SDS-PAGE.

binding result [1]: no binding
B1: GST-CIA-ΔN (CIA deficient in N-terminal amino acids 1 to 78) (other)
chain: AAFRQVQGSEISSIDEFCRKFRLDCPLAMERIKEDRPITIKDDKGNLNRCIADVVSLFITVMDKLRLEIRAMDEIQPDLRELMETMHRMSHLPPDFEGRQTVSQWLQTLSGMSASDELDDSQVRQMLFDLESAYNAFNRFLHA
notes: Range follows from 'deficient in N-terminal amino acids 1 to 78' of the 221-residue protein; also called CIA-AN; N-terminal region-deleted CIA peptide; not shown: N-terminal GST of pGEX-4T-1 and its linker

binding result [2]: no binding
binding result [1]: no binding
B2: GST-CIA-CEN (CIA containing only amino acids 79 to 174) (other)
chain: AAFRQVQGSEISSIDEFCRKFRLDCPLAMERIKEDRPITIKDDKGNLNRCIADVVSLFITVMDKLRLEIRAMDEIQPDLRELMETMHRMSHLPPDF
notes: also called CIA mutant peptide deficient in both terminal regions; not shown: N-terminal GST of pGEX-4T-1 and its linker
